{
  "source": "paper PMC11435032",
  "about": "“Development of Biolayer Interferometry (BLI)-Based Double-Stranded RNA Detection Method with Application in mRNA-Based Therapeutics and Vaccines”",
  "key": {"J2 anti-dsRNA antibody": {"system": "J2 anti-dsRNA antibody", "assay": "BLI", "settings": "kinetic, BLI (Octet RED384): 10 mM Tris pH 8.0, 100 mM NaCl, 0.1 mg/mL yeast tRNA, 0.1 mM EDTA, 0.05% Tween-20, temperature not stated"}, "[1]": {"system": "B2 (FHV B2 1-73) (Flock House Virus)", "assay": "BLI", "settings": "BLI (Octet RED384): 10 mM Tris pH 8.0, 100 mM NaCl, 0.1 mg/mL yeast tRNA, 0.1 mM EDTA, 0.05% Tween-20, temperature not stated"}, "K1 anti-dsRNA antibody": {"system": "K1 anti-dsRNA antibody", "assay": "BLI", "settings": "BLI (Octet RED384): 10 mM Tris pH 8.0, 100 mM NaCl, 0.1 mg/mL yeast tRNA, 0.1 mM EDTA, 0.05% Tween-20, temperature not stated"}, "B2-Biotin (B2-Avi)": {"target": "B2-Biotin (B2-Avi) (Flock House Virus, UniProt P68831 1-73)", "sequence (P68831 1-73)": "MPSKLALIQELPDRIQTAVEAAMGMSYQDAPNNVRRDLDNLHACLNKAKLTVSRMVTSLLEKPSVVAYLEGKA", "assay": "BLI; avidity surface; lower asymptote than long dsRNA; BLI (Octet RED384): 10 mM Tris pH 8.0, 100 mM NaCl, 0.1 mg/mL yeast tRNA, 0.1 mM EDTA, 0.05% Tween-20; temperature not stated", "settings": "protein: recombinant; tags: N-terminal 6xHis; C-terminal GS linker-AviTag, biotinylated by BirA in vivo; chain copies: 2; blunt"}, "[2]": {"settings": "U replaced by N1-methylpseudouridine"}},
  "data": [
    {"molecule": "700 bp-ψ", "values": [
      {"measurement": "Kd", "setting": "J2 anti-dsRNA antibody; U replaced by pseudouridine", "result": 32, "unit": "nM"},
      {"measurement": "Kd", "setting": "[1]; U replaced by pseudouridine", "result": 405, "unit": "nM"}
    ]},
    {"molecule": "700 bp-U", "values": [
      {"measurement": "Kd", "setting": "J2 anti-dsRNA antibody", "result": 27, "unit": "nM"},
      {"measurement": "Kd", "setting": "K1 anti-dsRNA antibody", "result": 325, "unit": "nM"},
      {"measurement": "Kd", "setting": "[1]", "result": 62, "unit": "nM"}
    ]},
    {"molecule": "700 bp-m1ψ", "values": [
      {"measurement": "Kd", "setting": "J2 anti-dsRNA antibody; [2]", "result": 56, "unit": "nM"},
      {"measurement": "Kd", "setting": "[1]; [2]", "result": 669, "unit": "nM"}
    ]},
    {"molecule": "700 bp-5 moU", "values": [
      {"measurement": "Kd", "setting": "J2 anti-dsRNA antibody; U replaced by 5-methoxyuridine", "result": 131, "unit": "nM"},
      {"measurement": "binding signal (fold weaker than 700 bp-U)", "setting": "K1 anti-dsRNA antibody; Kd value missing in material, U replaced by 5-methoxyuridine", "result": 4},
      {"measurement": "Kd", "setting": "[1]; U replaced by 5-methoxyuridine", "result": 948, "unit": "nM"}
    ]},
    {"molecule": "25 bp-m1ψ dsRNA (dsRNA, U replaced by N1-methylpseudouridine) RNA 1: CACGUACCGUUCUAGCGGGCUCUCG RNA 2: CGAGAGCCCGCUAGAACGGUACGUG", "values": [
      {"measurement": "binding result", "setting": "B2-Biotin (B2-Avi)", "result": "binds"}
    ]},
    {"molecule": "25 bp-U dsRNA (dsRNA) RNA 1: CACGUACCGUUCUAGCGGGCUCUCG RNA 2: CGAGAGCCCGCUAGAACGGUACGUG", "values": [
      {"measurement": "binding result", "setting": "B2-Biotin (B2-Avi)", "result": "binds"}
    ]}
  ]
}
